Laboratory results published in patent US20240272170A1.

T1: HA peptide (Octet assay of PS621 variants)
T1 sequence (peptide): HAKLDEESILKQK


Assays:
[1] = target: YRELRLLK after cleavage to N-terminal arginine (RELRLLK); assay: single-molecule dynamic sequencing on chip
[2] = target: YRELRLLK after cleavage to N-terminal arginine (RELRLLK); assay: on-chip single-molecule dynamic sequencing with PS610, PS961, PS621 and aminopeptidases; median of the RS mean PD distribution; panel YREL
[3] = target: T1, HA peptide (Octet assay of PS621 variants); assay: Octet (BLI), 30 C
[4] = target: FA peptide (Octet assay of PS557 variants); assay: Octet (BLI), peptide on sensor, response after 200 s association
[5] = target: IA peptide (Octet assay of PS557 variants); assay: as above
[6] = target: MA peptide (Octet assay of PS557 variants); assay: as above
[7] = target: WA peptide (Octet assay of PS557 variants); assay: as above
[8] = target: YA peptide (Octet assay of PS557 variants); assay: as above
[9] = target: N-terminal alanine peptide (SNAP display selection); assay: SNAP display, 4 rounds of selection on alanine peptide; NGS abundance in round 4 / naive library
[10] = target: FA peptide (Octet assay of PS557 variants); assay: Octet (BLI), peptide on sensor, response after 200 s association; second PS829 row
[11] = target: IA peptide (Octet assay of PS557 variants); assay: as above
[12] = target: MA peptide (Octet assay of PS557 variants); assay: as above

Binder | Octet response [4] [nm] | Octet response [5] [nm] | Octet response [6] [nm] | also measured
PS621 (protein) MHSKFSHAGRICGAKFKVGEPIYRCKECSFDDTCVLCVNCFNPKDHTGHHVYTTICTEFNNGICDCGDKEAWNHTLFCKAEEG | – | – | – | median interpulse duration (IPD) [1]: 10.1 s; median RS mean PD [2]: 0.19 s
PS1103 (designed binder) MHSKFSHAGRICGAKFKVGEPIYRCKECSFDYTCVLCVNCFNPKDHTGHHVYTTICTEFNNGICDCGDKEAWNHTLFCKAEEG | – | – | – | Octet response [3]: 0.1
PS1112 (designed binder) MHSKFSHAGRICGAKFKVGEPIYRCKECSFDDTCVLCVNCFNPKDHTGHHVYTTICTEFNNGICDCGDKTAWNHTLFCKAEEG | – | – | – | Octet response [3]: 0.1
PS1101 (designed binder) MHSKFSHAGRICGAKFKVREPIYRCKECSFDDTCVLCVNCFNPKDHTGHHVYTTICTEFNNGICDCGDKEAWNHTLFCKAEEG | – | – | – | Octet response [3]: 0.1
PS1116 (designed binder) MHSKFSHAGRICGAKFKVGEPIYRCKECSFDDTCVLCVNCFNPKDHTYHHVYTTICTEFNNGICDCGDKEAWNHTLFCKAEEG | – | – | – | Octet response [3]: 0.1
PS1111 (designed binder) MHSKFSHAGRICGAKFKVGEPIYRCKECSFDDTCVLCVNCFNPKDHTGHHVYTTICTEFNNGICDCGDKSAWNHTLFCKAEEG | – | – | – | Octet response [3]: 0.1
PS796 (designed binder) MPTAASATESAIEDTPAPARPEVDGRTKPKRQPRYHVVLWDDDDHTYQYVVVMLQSLFGHPPERGYRLAKEMDTQGRVIVLTTTREHAELKRDQIHAFGYDRLLARSKGSMKASIEAEE | 1.37 | 11.6 | 8.42 | Octet response [7]: 0.761 nm; Octet response [8]: 1.23 nm
PS797 (designed binder) MPTAASATESAIEDTPAPARPEVDGRTKPKRQPRYHVVLWDDDDHTYQYVVVMLQSLFGHPPERGYRLAKEMDTLGRVIVLTTTREHAELKRDQIHAFGYDRLLARSKGSMKASIEAEE | 0.202 | 11.6 | 8.71 | –
PS809 (designed binder) MPTAASATESAIEDTPAPARPEVDGRTKPKRQPRYHVVLWNDDDHTYQYVVVMLQSLFGHPPERGYRLAKEMDTQGRVIVLTTTREHAELKRDQIHAFGYDRLLARSKGSMKASIEAEE | 0.0032 | 8.52 | 2.23 | Octet response [7]: 0.0117 nm; Octet response [8]: 0.0027 nm
PS801/PS814 (designed binder) MPTAASATESAIEDTPAPARPEVDGRTKPKRQPRYHVVLWNDDDHTYQYVVVMLQSLFGHPPKRGYRLAKEVDTQGRVIVLTTTREHAELKRDQIHAFGYDRLLARSKGSMKASIEAEE | 0.00662 | 9.02 | 1.75 | Octet response [7]: 0.0148 nm; Octet response [8]: 0.054 nm
PS557 mutant N41D, Q55R, E63A, V72M, Y100R (SNAP display clone) (designed binder, not shown: large carriers; small tags and cut ends, In the selection the protein carried an N-terminal SNAP tag covalently bound to benzylguanine on its own coding DNA; this is not in the letters.) MPTAASATESAIEDTPAPARPEVDGRTKPKRQPRYHVVLWDDDDHTYQYVVVMLRSLFGHPPARGYRLAKEMDTQGRVIVLTTTREHAELKRDQIHAFGRDRLLARSKGSMKASIEAEE | – | – | – | Enrichment [9]: 154
PS831 (designed binder) MPTAASATESAIEDTPAPARPEVDGRTKPKRQPRYHVVLWNDDDHTYQYVVVMLQSLFGHPRKRGYRLAKEMDTLGRVIVLTTTREHAELKRDQIHAFGYDRLLARSKGSMKASIEAEE | 0.755 | 10.5 | 4.86 | –
PS557 mutant N41D, Q55R, E63W, V72M, R106H (SNAP display clone) (designed binder, not shown: large carriers; small tags and cut ends, In the selection the protein carried an N-terminal SNAP tag covalently bound to benzylguanine on its own coding DNA; this is not in the letters.) MPTAASATESAIEDTPAPARPEVDGRTKPKRQPRYHVVLWDDDDHTYQYVVVMLRSLFGHPPWRGYRLAKEMDTQGRVIVLTTTREHAELKRDQIHAFGYDRLLAHSKGSMKASIEAEE | – | – | – | Enrichment [9]: 133
PS557 mutant N41D, Q55R, P62Y, E63T, V72M, Y100R (SNAP display clone) (designed binder, part only, N-terminal SNAP tag) MPTAASATESAIEDTPAPARPEVDGRTKPKRQPRYHVVLWDDDDHTYQYVVVMLRSLFGHPYTRGYRLAKEMDTQGRVIVLTTTREHAELKRDQIHAFGRDRLLARSKGSMKASIEAEE | – | – | – | Enrichment [9]: 158
PS847 (designed binder) MPTAASATESAIEDTPAPARPEVDGRTKPKRQPRYHVVLWDDDDHTYQYVVVMLRSLFGHPPERGYRLAKEMDTQGRVIVLTTTREHAELKRDQIHAFGYDRLLARSKGSMKASIEAEE | 0.059 | 7.77 | 3.23 | Octet response [7]: 0.0098 nm; Octet response [8]: 0.0607 nm
PS557 mutant N41D, E63S, L68M, V72M, R106H (SNAP display clone) (designed binder, not shown: large carriers; small tags and cut ends, In the selection the protein carried an N-terminal SNAP tag covalently bound to benzylguanine on its own coding DNA; this is not in the letters.) MPTAASATESAIEDTPAPARPEVDGRTKPKRQPRYHVVLWDDDDHTYQYVVVMLQSLFGHPPSRGYRMAKEMDTQGRVIVLTTTREHAELKRDQIHAFGYDRLLAHSKGSMKASIEAEE | – | – | – | Enrichment [9]: 124
PS557 mutant N41D, Q55R, H60I, V72M (SNAP display clone) (designed binder, not shown: large carriers; small tags and cut ends, In the selection the protein carried an N-terminal SNAP tag covalently bound to benzylguanine on its own coding DNA; this is not in the letters.) MPTAASATESAIEDTPAPARPEVDGRTKPKRQPRYHVVLWDDDDHTYQYVVVMLRSLFGIPPERGYRLAKEMDTQGRVIVLTTTREHAELKRDQIHAFGYDRLLARSKGSMKASIEAEE | – | – | – | Enrichment [9]: 320
PS808 (designed binder) MPTAASATESAIEDTPAPARPEVDGRTKPKRQPRYHVVLWNDDDHTYQYVVVMLRSLFGHPPERGYRLAKEVDTQGRVIVLTTTREHAELKRDQIHAFGYDRLLARSKGSMKASIEAEE | 0.00233 | 9.27 | 1.88 | Octet response [7]: 0.00243 nm; Octet response [8]: 0.0539 nm
PS798 (designed binder) MPTAASATESAIEDTPAPARPEVDGRTKPKRQPRYHVVLWNDDDHTYQYVVVMLQSLFGHPPERGYRLAKEMDTLGRVIVLTTTREHAELKRDQIHAFGYDRLLARSKGSMKASIEAEE | 1.41 | 12.7 | 9.37 | –
PS829 (designed binder) MPTAASATESAIEDTPAPARPEVDGRTKPKRQPRYHVVLWDDDDHTYQYVVVMLQSLFGHPRERGYRLAKEMDTLGRVIVLTTTREHAELKRDQIHAFGYDRLLARSKGSMKASIEAEE | 0.797 | 7.51 | 4.7 | Octet response [7]: 0.625 nm; Octet response [8]: 0.749 nm; Octet response [10]: 1.18 nm; Octet response [11]: 8.85 nm; Octet response [12]: 7.86 nm
PS557 mutant N41D, Q55R, E63S, L68M, V72M, Y100R (SNAP display clone) (designed binder, not shown: large carriers; small tags and cut ends, In the selection the protein carried an N-terminal SNAP tag covalently bound to benzylguanine on its own coding DNA; this is not in the letters.) MPTAASATESAIEDTPAPARPEVDGRTKPKRQPRYHVVLWDDDDHTYQYVVVMLRSLFGHPPSRGYRMAKEMDTQGRVIVLTTTREHAELKRDQIHAFGRDRLLARSKGSMKASIEAEE | – | – | – | Enrichment [9]: 166
PS828 (designed binder) MPTAASATESAIEDTPAPARPEVDGRTKPKRQPRYHVVLWDDDDHTYQYVVVMLQSLFGHPRERGYRLAKEVDTLGRVIVLTTTREHAELKRDQIHAFGYDRLLARSKGSMKASIEAEE | 0.583 | 5.32 | 1.7 | –

Now from value to binder, other results behind:

Octet response [4] [nm] | Octet response [5] [nm] | Octet response [6] [nm] | Binder | also measured
– | 9.06 | 3.75 | PS819 (designed binder) MPTAASATESAIEDTPAPARPEVDGRTKPKRQPRYHVVLWDDDDHTYQYVVVMLQSLFGHPPKRGYRLAKEMDTQGRVIVLTTTREHAELKRDQIHAFGYDRLLARSKGSMKASIEAEE | –
0.377 | 11.2 | 8.09 | PS838 (designed binder) MPTAASATESAIEDTPAPARPEVDGRTKPKRQPRYHVVLWDDDDHTYQYVVVMLQSLFGHPRERGYRLAKEMDTQGRVIVLTTTREHAELKRDQIHAFGYDRLLARSKGSMKASIEAEE | Octet response [7]: 0.0581 nm; Octet response [8]: 0.59 nm
0.0339 | 6.51 | 2.16 | PS830 (designed binder) MPTAASATESAIEDTPAPARPEVDGRTKPKRQPRYHVVLWDDDDHTYQYVVVMLQSLFGHPRKRGYRLAKEMDTLGRVIVLTTTREHAELKRDQIHAFGYDRLLARSKGSMKASIEAEE | –
